Measured values as given in PMC8980056, “RAGE-TXNIP axis drives inflammation in Alzheimer’s by targeting Aβ to mitochondria in microglia” (Cell Death & Disease, 2022).

Columns and labels:
[1] = target: the molecule itself; assay: native gel or EMSA; western blot of native gel of Drp1 tetramer in LPS-primed primary microglia, without and with 4 h of Aβ dimers
[2] = target: the molecule itself; assay: native gel or EMSA; western blot of native gel of DRP1 tetramer in hippocampus of wt and 5xFAD mice (also with siTXNIP)

B1: Dynamin-Related Protein 1 (Drp1), endogenous in LPS-primed primary microglia (natural protein, UniProt Q8K1M6 1-736, looked up)
chain: MEALIPVINKLQDVFNTVGADIIQLPQIVVVGTQSSGKSSVLESLVGRDLLPRGTGVVTRRPLILQLVHVSPEDKRKTTGEENGVEAEEWGKFLHTKNKLYTDFDEIRQEIENETERISGNNKGVSPEPIHLKVFSPNVVNLTLVDLPGMTKVPVGDQPKDIELQIRELILRFISNPNSIILAVTAANTDMATSEALKISREVDPDGRRTLAVITKLDLMDAGTDAMDVLMGRVIPVKLGIIGVVNRSQLDINNKKSVTDSIRDEYAFLQKKYPSLANRNGTKYLARTLNRLLMHHIRDCLPELKTRINVLAAQYQSLLNSYGEPVDDKSATLLQLITKFATEYCNTIEGTAKYIETSELCGGARICYIFHETFGRTLESVDPLGGLNTIDILTAIRNATGPRPALFVPEVSFELLVKRQIKRLEEPSLRCVELVHEEMQRIIQHCSNYSTQELLRFPKLHDAIVEVVTCLLRKRLPVTNEMVHNLVAIELAYINTKHPDFADACGLMNNNIEEQRRNRLARELPSAGSRDKSSKVPSALAPASQEPPPAASAEADGKLIQDNRRETKNVPSAGGGIGDGGQEPTTGNWRGMLKTSKAEELLAEEKSKPIPIMPASPQKGHAVNLLDVPVPVARKLSAREQRDCEVIERLIKSYFLIVRKNIQDSVPKAVMHFLVNHVKDTLQSELVGQLYKSSLLDDLLTESEDMAQRRKEAADMLKALQGASQIIAEIRETHLW
notes: Dynamin-Related Protein 1 (Drp1), endogenous in primary microglia; Precipitated with an anti-Drp1 antibody; seen as tetramer on a native gel; Mouse is only surmised for the primary microglia; see the supplementary methods; source: endogenous, LPS-primed primary microglia lysate
stoichiometry N [1]: 4

B2: Dynamin-Related Protein 1 (Drp1), endogenous in mouse hippocampus (natural protein, UniProt Q8K1M6 1-736, looked up)
chain: MEALIPVINKLQDVFNTVGADIIQLPQIVVVGTQSSGKSSVLESLVGRDLLPRGTGVVTRRPLILQLVHVSPEDKRKTTGEENGVEAEEWGKFLHTKNKLYTDFDEIRQEIENETERISGNNKGVSPEPIHLKVFSPNVVNLTLVDLPGMTKVPVGDQPKDIELQIRELILRFISNPNSIILAVTAANTDMATSEALKISREVDPDGRRTLAVITKLDLMDAGTDAMDVLMGRVIPVKLGIIGVVNRSQLDINNKKSVTDSIRDEYAFLQKKYPSLANRNGTKYLARTLNRLLMHHIRDCLPELKTRINVLAAQYQSLLNSYGEPVDDKSATLLQLITKFATEYCNTIEGTAKYIETSELCGGARICYIFHETFGRTLESVDPLGGLNTIDILTAIRNATGPRPALFVPEVSFELLVKRQIKRLEEPSLRCVELVHEEMQRIIQHCSNYSTQELLRFPKLHDAIVEVVTCLLRKRLPVTNEMVHNLVAIELAYINTKHPDFADACGLMNNNIEEQRRNRLARELPSAGSRDKSSKVPSALAPASQEPPPAASAEADGKLIQDNRRETKNVPSAGGGIGDGGQEPTTGNWRGMLKTSKAEELLAEEKSKPIPIMPASPQKGHAVNLLDVPVPVARKLSAREQRDCEVIERLIKSYFLIVRKNIQDSVPKAVMHFLVNHVKDTLQSELVGQLYKSSLLDDLLTESEDMAQRRKEAADMLKALQGASQIIAEIRETHLW
notes: Dynamin-Related Protein 1 (Drp1), mouse, endogenous in the hippocampus of 5xFAD mice; Tetramer seen on a native gel; source: endogenous, hippocampus of 5xFAD mice
stoichiometry N [2]: 4
